Results on one substance are retold here after article PMC3445780.

The target of the assay is EphB4 receptor (UniProt P54760). The assay is described as follows: SPR.
Sequence of UniProt P54760 (P54760 16-987): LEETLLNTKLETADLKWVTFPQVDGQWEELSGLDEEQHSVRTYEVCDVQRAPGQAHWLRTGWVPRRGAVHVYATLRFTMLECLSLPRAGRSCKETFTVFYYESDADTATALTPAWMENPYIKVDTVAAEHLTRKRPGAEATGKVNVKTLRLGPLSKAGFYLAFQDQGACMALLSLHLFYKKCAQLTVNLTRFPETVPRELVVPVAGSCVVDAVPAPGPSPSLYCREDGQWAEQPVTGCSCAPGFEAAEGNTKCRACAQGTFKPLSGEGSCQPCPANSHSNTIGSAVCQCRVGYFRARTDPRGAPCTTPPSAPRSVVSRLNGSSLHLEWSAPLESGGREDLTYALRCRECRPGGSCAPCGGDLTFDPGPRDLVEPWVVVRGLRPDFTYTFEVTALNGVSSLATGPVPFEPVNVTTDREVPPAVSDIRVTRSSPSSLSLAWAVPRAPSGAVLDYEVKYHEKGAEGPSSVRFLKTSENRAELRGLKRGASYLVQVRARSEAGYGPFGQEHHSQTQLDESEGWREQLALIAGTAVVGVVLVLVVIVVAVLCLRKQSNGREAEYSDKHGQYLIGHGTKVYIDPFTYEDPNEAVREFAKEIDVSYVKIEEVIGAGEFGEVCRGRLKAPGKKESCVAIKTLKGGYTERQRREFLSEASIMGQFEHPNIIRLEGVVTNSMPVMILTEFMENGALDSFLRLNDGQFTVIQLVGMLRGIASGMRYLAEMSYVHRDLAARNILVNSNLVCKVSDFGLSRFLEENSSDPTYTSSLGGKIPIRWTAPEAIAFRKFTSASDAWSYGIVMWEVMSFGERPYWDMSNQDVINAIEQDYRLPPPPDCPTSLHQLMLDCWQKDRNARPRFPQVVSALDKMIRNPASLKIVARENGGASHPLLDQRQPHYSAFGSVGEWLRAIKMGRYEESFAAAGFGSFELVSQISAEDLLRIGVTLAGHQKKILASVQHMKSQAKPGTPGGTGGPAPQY

As usually defined, the Kd is the concentration at which binding is half-saturated. Take cyclic peptide c(TNYL-RAW): the dissociation constant (Kd) was found to be 4.4 nM.
